Among the data in paper PMC12344693, “Human Milk Oligosaccharides Multivalently Presented on Defined Synthetic Neo-Glycoproteins Are Nanomolar Ligands of Tandem-Repeat Galectins” (Biomacromolecules, 2025) are Kd values, retold here.

In one test the target is T1, Asialofetuin (UniProt P12763 19-359, asialo form (glycans without sialic acid), by its name only).
T1 construct: asialofetuin (desialylated fetuin); neither source nor species is stated; It is coated on the ELISA plate (0.1 µM in PBS); also called ASF
T1 sequence (looked up): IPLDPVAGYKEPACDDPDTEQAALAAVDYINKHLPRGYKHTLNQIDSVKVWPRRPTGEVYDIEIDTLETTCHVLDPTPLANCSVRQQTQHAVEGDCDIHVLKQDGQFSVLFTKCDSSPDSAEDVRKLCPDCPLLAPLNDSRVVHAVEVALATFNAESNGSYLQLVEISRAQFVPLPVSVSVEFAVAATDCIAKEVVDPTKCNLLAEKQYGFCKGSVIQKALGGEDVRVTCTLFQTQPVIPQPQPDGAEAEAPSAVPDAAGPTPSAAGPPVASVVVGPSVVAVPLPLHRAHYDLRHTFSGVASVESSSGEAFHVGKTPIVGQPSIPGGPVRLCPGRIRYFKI
The test is described as follows: ELISA; direct ELISA: ASF immobilised on microtiter plates, serial dilution of the galectin in EPBS (PBS with 2 mM EDTA, 50 µL/well); otherwise as the competitive ELISA (anti-His-tag-HRP detection). To be noted: both partners purified. (ELISA stands for enzyme-linked immunosorbent assay.)

Test [1] concerns the target T2, neo-glycoprotein NGP5 (LN2-Lac-HSA) (human, UniProt P02768 25-609, LN2-Lac (Galβ4GlcNAcβ3Galβ4Glc) on an ethylthioureidyl linker, coupled through squaric acid to lysine residues; approximately 5 to 9 glycans per HSA molecule (number in Table S7); positions not stated).
T2 construct: human serum albumin (HSA), carrier protein of the neo-glycoprotein; source: washed with water by ultracentrifugation
The test is described as follows: BLI; biotinylated galectin constructs (2 μg/mL in PBS, 0.05% Tween-20) immobilised on streptavidin biosensors; neo-glycoproteins 1.56-100 nM in solution; 25 °C, 850 rpm; association 450 s, dissociation 600 s; Langmuir 1:1 kinetic model. To be noted: both partners purified. (In general: In BLI a coated tip is dipped into the sample, and binding shifts an interference pattern.)

B1: Gal-4-AVI-link (natural protein, human, UniProt P56470 1-323, looked up)
chain: MAYVPAPGYQPTYNPTLPYYQPIPGGLNVGMSVYIQGVASEHMKRFFVNFVVGQDPGSDVAFHFNPRFDGWDKVVFNTLQGGKWGSEERKRSMPFKKGAAFELVFIVLAEHYKVVVNGNPFYEYGHRLPLQMVTHLQVDGDLQLQSINFIGGQPLRPQGPPMMPPYPGPGHCHQQLNSLPTMEGPPTFNPPVPYFGRLQGGLTARRTIIIKGYVPPTGKSFAINFKVGSSGDIALHINPRMGNGTVVRNSLLNGSWGSEEKKITHNPFGPGQFFDLSIRCGLDRFKVYANGQHLFDFAHRLSAFQRVDTLEIQGDVTLSYVQI
modifications: biotin on the single lysine of the AVI-tag
notes: human galectin-4, full-length tandem-repeat galectin with the native full-length peptide linker of 28 aa (2979 Da); synthetic gene (Biocat) in pET-Duet1; also called Gal-4 (AVI-tag); source: E. coli BL21(λDE3) co-expressing biotin ligase BirA, purified (Ni-NTA); not shown: His6, N-terminal, kept
Consider B1, for which the affinity with Asialofetuin, expressed as Kd, was 2300 ± 800 nM.

B2: Gal-9-AVI-link (monobiotinylated full-length galectin-9) (natural protein, human, UniProt O00182 1-355, looked up)
chain: MAFSGSQAPYLSPAVPFSGTIQGGLQDGLQITVNGTVLSSSGTRFAVNFQTGFSGNDIAFHFNPRFEDGGYVVCNTRQNGSWGPEERKTHMPFQKGMPFDLCFLVQSSDFKVMVNGILFVQYFHRVPFHRVDTISVNGSVQLSYISFQNPRTVPVQPAFSTVPFSQPVCFPPRPRGRRQKPPGVWPANPAPITQTVIHTVQSAPGQMFSTPAIPPMMYPHPAYPMPFITTILGGLYPSKSILLSGTVLPSAQRFHINLCSGNHIAFHLNPRFDENAVVRNTQIDNSWGSEERSLPRKMPFVRGQSFSVWILCEAHCLKVAVDGQHLFEYYHRLRNLPTINRLEVGGDIQLTHVQT
modifications: biotin on the single lysine of the AVI-tag (…)
notes: human galectin-9 (Gal-9), both CRDs with the linker peptide; prepared as described previously; source: E. coli BL21(λDE3) cotransformed with the birA gene (biotin ligase), biotinylated in vivo; see Supporting Information, Section 6; not shown: (GGS)5 linker between AVI-tag and galectin, N-terminal, kept
As for B2, binding in test [1] was characterised by a dissociation constant (Kd) of 0.05 ± 0.01 nM.
